Laboratory results as given in PMC2777315 (PLoS Pathogens, 2009).

Experiments:
Details in all cases: both partners purified
[1] = target: T1, GST-IlsA fusion protein (IlsA, iron-regulated leucine-rich surface protein of Bacillus cereus ATCC 14579) (Bacillus cereus ATCC 14579, UniProt Q81G77 1-760); experiment: ELISA
T1 construct: also called IlsA-GST; purified IlsA; source: E. coli BL-21, purified (pellet solubilised in 8 M urea, dialysed, glutathione Sepharose 4B)
T1 sequence: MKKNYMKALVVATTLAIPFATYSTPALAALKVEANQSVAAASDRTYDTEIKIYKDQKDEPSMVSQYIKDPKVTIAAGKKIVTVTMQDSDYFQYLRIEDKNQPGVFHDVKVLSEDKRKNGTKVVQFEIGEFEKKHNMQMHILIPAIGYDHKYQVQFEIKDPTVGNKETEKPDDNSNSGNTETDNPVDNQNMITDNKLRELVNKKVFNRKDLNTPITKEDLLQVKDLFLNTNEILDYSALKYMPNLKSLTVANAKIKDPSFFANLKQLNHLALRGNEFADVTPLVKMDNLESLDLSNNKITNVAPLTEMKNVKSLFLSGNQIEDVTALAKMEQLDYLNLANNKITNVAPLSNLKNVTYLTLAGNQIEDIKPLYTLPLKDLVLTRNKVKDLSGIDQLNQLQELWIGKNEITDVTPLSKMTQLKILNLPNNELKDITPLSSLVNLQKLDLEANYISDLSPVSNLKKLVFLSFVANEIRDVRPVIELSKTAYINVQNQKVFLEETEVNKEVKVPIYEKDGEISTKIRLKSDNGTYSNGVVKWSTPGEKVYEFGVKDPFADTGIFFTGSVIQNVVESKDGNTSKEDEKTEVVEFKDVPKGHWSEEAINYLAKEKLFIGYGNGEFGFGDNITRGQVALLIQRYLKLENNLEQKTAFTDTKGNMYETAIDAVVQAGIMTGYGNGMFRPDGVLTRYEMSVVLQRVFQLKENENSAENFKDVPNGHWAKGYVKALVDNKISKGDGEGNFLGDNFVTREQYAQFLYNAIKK

[2] = target: T1, GST-IlsA fusion protein (IlsA, …); experiment: SPR
[3] = target: T1, GST-IlsA fusion protein (IlsA, …); experiment: ELISA; hemoglobin or ferritin coated on plates in increasing amounts (0-180 nM), 0.1 M phosphate buffer pH 7.4; IlsA added at 30 nM, 2 h at 37°C; detected with polyclonal anti-IlsA; Kd estimated with Origin
[4] = target: T1, GST-IlsA fusion protein (IlsA, …); experiment: SPR; BIAcore 3000; GST-IlsA captured by anti-GST antibody on a CM5 chip; ligands injected at 200 nM for 8 min, dissociation 10 min; 0.1 M phosphate buffer pH 7.4; 20°C; data did not fit a 1:1 model, indicative koff from the dissociation phase only

B1: ferritin (complex)
chain 1: MSSQIRQNYSTEVEAAVNRLVNLYLRASYTYLSLGFYFDRDDVALEGVCHFFRELAEEKREGAERLLKMQNQRGGRALFQDLQKPSQDEWGTTLDAMKAAIVLEKSLNQALLDLHALGSAQADPHLCDFLESHFLDEEVKLIKKMGDHLTNIQRLVGSQAGLGEYLFERLTLKHD
chain 2: MTTAFPSQVRQNYHQDSEAAINRQINLELHASYVYLSMSFYFDRDDVALKNFAKYFLHQSHEEREHAEKLMKLQNQRGGRIFLQDIKKPDQDDWENGLKAMECALHLEKNVNESLLELHKLATDKNDPHLCDFLETHYLNEQVKAIKELGDHVTNLRRMGAPESGMAEYLFDKHTLGECDES
notes: source: bought: Sigma-Aldrich
Kd [1]: 10 ± 3 nM | koff [2]: 0.00171 s⁻¹

B2: hemoglobin (complex)
chain 1: not shown
chain 2: not shown
Kd [3]: 3 ± 1 nM | koff [4]: 0.00148 s⁻¹
